Where a chain is given by its changes, count along the chain named. Like-named read-outs stand apart in the source and are kept apart here.
B1: 3C9-C9: maize C4 PEPC variant, 8 amino acid substitutions, SEQ ID NO: 22 (protein)
chain: MASTKAPGPGEKHHSIDAQLRQLVPGKVSEDDKLIEYDALLVDRFLNILQDLHGPSLREFVQECYEVSADYEGKGDTTKLGELGAKLTGLAPADAILVASSILHMLNLANLAEEVQIARRRRNSKLKKGGFADEGSATTESDIEETLKRLVSEVGKSPEEVFEALKNQTVDLVFTAHPTQSARRSLLQKNAGIRNCLTQLNAKDITDDDKQELDEALQREIQAAFRTDEIRRAQPTPQDEMRYGMSYIHETVWKGVPKFLRRVDTALKNIGINERLPYNVSLIRFSSWMGGDRDGNPRVTPEVTRDVCLLARMMAANLYINQIEELMFELSMWRCNDELRVRAEELHSSSGSKVTKYYIEFWKQIPPNEPYRVILGHVRDKLYNTRERARHLLASGVSEISAEASFTSIEEFLEPLELCYKSLCDCGDKAIADGSLLDLLRQVFTFGLSLVKLDIRQESERHTDVIDAITTHLGIGSYREWSEDKRQEWLLSELKGKRPLLPPDLPQTDEIADVIGAFHVLAELPPDSFGPYIISMATAPSDVLAVELLQRECGIKQPLPVVPLFERLADLQSAPASVERLFSVDWYMDRIKGKQQVMVGYSDSGKDAGRLSAAWQLYKAQEEMAQVAKRYGVKLTLFHGRGGTVGRGGGPTHLAILSQPPDTINGSIRVTVQGEVIEFCFGEEHLCFQTLQRFTAATLEHGMHPPVSPKPEWRKLMDEMAVVATEEYRSVVVKEPRFVEYFRSATPETEYGRMNIGSRPAKRRPGGGITTLRAIPWIFSWTQTRFHLPVWLGVGAAFKFAIDKDVRNFQVLKEMYNEWPFFRVTLDLLEMVFAKGDPGIAGLYDELLVAEELKPFGKQLRDKYVETQQLLLQIAGHKDILEGDPFLKQGLVLRNPYITTLNVFQAYTLKRIRDPNFKVTPQPPLSKEFADENKPAGLVKLNPASEYPPGLEDTLILTMKGIAAGMQNTG
modifications: shuffled variant
B2: 3D5-D12: maize C4 PEPC variant, 7 amino acid substitutions, SEQ ID NO: 24 (protein)
chain: MASTKAPGPGEKHHSIDAQLRQLVPGKVSEDDKLIEYDALLVDRFLNILQDLHGPSLREFVQECYEVSADYEGKGDTTKLGELGARLTGLAPADAILVASSILHMLNLANLAEEAQIAHRRRNSKLKKGGFADEGSATTESDIEETLKRLVSEVGKSPEEVFEALKNQTVDLVFTAHPTQSARRSLLQKNAGIRNCLTQLNAKDITDDDKQELDEALQREIQAAFRTDEIRRAQPTPQDEMRYGMSYIHETVWKGVPKFLRRVDTALKNIGINERLPYNVSLIRFSSWMGGDRDGNPRVTPEVTRDVCLLARMMAANLYIDQIEELMFELSMWRCNDELRVRAEELHASAGSKVTKYYIEFWKQIPPNEPYRVILGHVRDKLYNTRERARHLLASGVSEISAESSFTSIEEFLEPLELCYKSLCDCGDKAIADGSLLDLLRQVFTFGLSLVKLDIRQESERHTDVIDAITTHLGIGSYREWSEDKRQEWLLSELKGKRPLLPPDLPQTDEIADVIGAFHVLAELPPDSFGPYIISMATAPSDVLAVELLQRECGVRQPLPVVPLFERLADLQSAPASVERLFSVDWYMDRIKGKQQVMVGYSDSGKDAGRLSAAWQLYRAQEEMAQVAKRYGVKLTLFHGRGGTVGRGGGPTHLAILSQPPDTINGSIRVTVQGEVIEFCFGEEHLCFQTLQRFTAATLEHGMHPPVSPKPEWRKLMDEMAVVATEEYRSVVVKEPRFVEYFRSATPETEYGRMNIGSRPAKRRPGGGITTLRAIPWIFSWTQTRFHLPVWLGVGAAFKFAIDKDVKNFQVLKEMYNEWPFFRVTLDLLEMVFAKGDPGIAGLYDELLVAEELKPFGKQLRDKYVETQQLLLQIAGHKDILEGDPFLKQGLVLRNPYITTLNVFQAYTLKRIRDPNFKVTPQPPLSKEFADENKPAGLVKLNPASEYPPGLEDTLILTMKGIAAGMQNTG
modifications: shuffled variant
B3: WT: wild-type maize C4 PEPC enzyme, SEQ ID NO: 26 (protein)
chain: B2 chain with R86K, A115V, G192R, A348S, A350S, K495R, K807R
modifications: Zea mays
B4: 3D10-G8: maize C4 PEPC variant, 14 amino acid substitutions, SEQ ID NO: 20 (protein)
chain: MASTKAPGPGEKHHSIDAQLCQLVPGKVSEDDKLIEYDALLVDRFLNILQDLHGPSLREFVQECYEVSADYEGKGDTTKLGELGAKLTGLAPADAILVASSILHMLNLANLAEEAQIALRRRNSKLKKGGFADEGSATTESDIEETLKRLVSEVGKSPEEVFEALKDQTVDLVFTAHPTQSARRSLLQKNARIRNCLTQLNAKDITDDDKQELDEALQREIQAAFRTDEIRRAQPTPQDEMRYGMSYIHETVWKGVPKFLRRVDTALKNIGINERLPYNVSLIRFSSWMGGDRDGNPRVTPEVTRDVCLLARMMAANLYIDQIEELMFELSMWRCNDELRVRAEELHASAGSKVTKYYIEFWKQIPPNEPYRVILGHVRDKLYNTRERARHLLASGVSEISAESSFTSIEEFLEPLELCYKSLCDCGDKAIADGSLLDLLRQVFTFGLSLVKLDIRQESERHTDVIDAITTYLGIGSYREWSEDKRQEWLLSELKGKRPLLPPDLPQTDEIADVIGAFHVLAELPPDSFGPYIISMATAPSDVLAVELLQRECGIKQPLPVVPLFERLADLQSAPASVERLFSVDWYMDRIKGKQQVMVGYSDSGKDAGRLSAAWQLYKAQEEMAQVAKRYGVKLTLFHGRGGTVGRGGGPTHLAILSQPPDTINGSIRVTVQGEVIEFCFGEEHLCFQTLQRFTAATLEHGMHPPVSPKPEWRKLMDEMAVVATEEYRSVVVKEPRFVEYFRSATPETEYGRMNIGSRPAKRRPGGGITTLRAIPWIFSWTQTRFHLPVWLGVGAAFKWAIDKDVKNFQVLKEMYNEWPFFRVTLDLLEMVFAKGDPGIAGLYDELLVAEELKPFGKQLRDKYVETQQLLLQIAGHKDILEGDPFLKRGLVLRNPYITTLNVFQAYTLKRIRDPNFKVTPQPPLSKEFADENKPAGLVKLNPASEYPPGLEDTLILTMKGIAAGMQNTG
modifications: shuffled variant

System: maize C4 PEPC
Assay: Kinetic and regulatory properties of PEPC variants (expressed in E. coli)
Assay type: biochemical
Details: for PEP, no activators kcat/S0.5 / PEP, no activators kcat/S0.5 % wt / PEP, with activators kcat/S0.5 / kcat/S0.5 Fold incr. / PEP, with activators kcat/S0.5 % wt: PEP substrate; for PEP, no activators kcat/S0.5 % wt / PEP, with activators kcat/S0.5 % wt / Glc-6-P A0.5 % wt / Glycine A0.5 % wt / HCO3 kcat/S0.5 % wt / Malate Ki % wt: relative to wild type; for kcat/S0.5 Fold incr.: with activators vs no activators; for HCO3 S0.5 / HCO3 kcat/S0.5 / HCO3 kcat/S0.5 % wt: bicarbonate substrate; for Ki / Malate Ki % wt: inhibitor malate
Source text: Libraries of modified PEPC polynucleotides were generated using recursive sequence recombination methods (Stemmer, Proc. Natl. Acad. Sci USA 91:10747-10751; Ness, et. al., Nature Biotechnology 20:1251-1255), also known as gene shuffling methods. These libraries incorporated diversity from related PEPC enzymes and also incorporated other designed and random changes. The starting polynucleotide sequence in which the diversity was incorporated was the maize C4 PEPC as shown in SEQ ID NO: 25. Each PEPC variant was expressed in E. coli as a thioredoxin fusion using the pET 32 expression vector (Novagen) with the E. coli expression strain Rosetta gami 2 BL21 DE3 pLYS S. Cultures expressing the variants were grown in 96-well culture blocks, lysed, and then PEPC activity and PEPC protein abundance were determined. The variants with high specific activity were subjected to further rounds of shuffling, for a total of 3 rounds. Examples of nucleotide and amino acid sequences of PEPC variants obtained with this method are SEQ ID NO: 4 to 24.
Detailed kinetic studies of PEPC variants were done in accordance with methods known in the art. See, for example, Tovar-Mendez et al. (2000) Plant Physiol. 123: 149-160; Tover-Mendez et al. (1998) Biochem. J. 332: 633-642.
PEPC variants had several improved properties in comparison with wild type PEPC, including greater affinity (lower S0.5 values) with respect to the bicarbonate substrate, greater Kcat/S0.5 values with the bicarbonate or PEP substrates, greater activation (lower A0.5 values) with […] or glycine as activators and greater Ki values with malate as inhibitor.

[1] = activator Glc-6-P, read-out: Glc-6-P A0.5
[2] = activator glycine, read-out: Glycine A0.5

Molecule | PEP, no activators kcat/S0.5 | PEP, no activators kcat/S0.5 % wt | PEP, with activators kcat/S0.5 | kcat/S0.5 Fold incr. | PEP, with activators kcat/S0.5 % wt | Glc-6-P Vmax Fold incr (activator Glc-6-P) | EC50 [1] | Glc-6-P A0.5 % wt (activator Glc-6-P) | Glycine Vmax Fold incr (activator glycine) | EC50 [2] | Glycine A0.5 % wt (activator glycine) | HCO3 S0.5 | HCO3 kcat/S0.5 | HCO3 kcat/S0.5 % wt | Ki | Malate Ki % wt
B1 | 79600 M⁻¹ s⁻¹ | 234 % wt | 3.831e+06 M⁻¹ s⁻¹ | 48.1 Fold incr. | 157 % wt | 11.4 Fold incr | 3850 µM | 57 % wt | 11.5 Fold incr | 760 µM | 21 % wt | 0.021 mM | 3.606e+06 M⁻¹ s⁻¹ | 170 % wt | 2000 µM | 500 % wt
B2 | 151000 M⁻¹ s⁻¹ | 442 % wt | 5.551e+06 M⁻¹ s⁻¹ | 36.9 Fold incr. | 227 % wt | 4.3 Fold incr | 1880 µM | 28 % wt | 4.1 Fold incr | 320 µM | 9 % wt | 0.0277 mM | 3.454e+06 M⁻¹ s⁻¹ | 163 % wt | 4000 µM | 1000 % wt
B3 | 34100 M⁻¹ s⁻¹ | 100 % wt | 2.443e+06 M⁻¹ s⁻¹ | 71.6 Fold incr. | 100 % wt | 23.1 Fold incr | 6800 µM | 100 % wt | 15.9 Fold incr | 3620 µM | 100 % wt | 0.0282 mM | 2.122e+06 M⁻¹ s⁻¹ | 100 % wt | 400 µM | 100 % wt
B4 | 86200 M⁻¹ s⁻¹ | 253 % wt | 4.613e+06 M⁻¹ s⁻¹ | 53.5 Fold incr. | 189 % wt | 2.5 Fold incr | 920 µM | 14 % wt | 3.6 Fold incr | 230 µM | 6 % wt | 0.0255 mM | 3.2e+06 M⁻¹ s⁻¹ | 151 % wt | 5000 µM | 1250 % wt

— patent US20140298544A1, “Engineered PEP carboxylase variants for improved plant productivity” (PIONEER HI BRED INTERNATIONAL INC, priority 2011, published 2014)
